Test results published in patent US20260001928A1 (CORTERIA PHARMACEUTICALS, priority 2022, published 2026).
*1 amine or outer side, *2 acyl side, *3 side chain or, on linkers, in order; H or OH if unused. Side-chain parts run from the residue outwards. [ ]: non-standard residue; d: D form. The star is where a group is joined. C18 diacid = O=C(O)CCCCCCCCCCCCCCCCC(=O)*; C16 diacid = O=C(O)CCCCCCCCCCCCCCC(=O)*; γGlu = O=C(O)[C@H](CCC(=O)[*:2])N[*:1]; Nva = CCC[C@H](N)C(=O)O; Abu = CC[C@H](N)C(=O)O; Dap = NC[C@H](N)C(=O)O; AEEA = NCCOCCOCC(=O)O; Aib = CC(C)(N)C(=O)O

T1: CRF1R receptor (UniProt P34998 24-415, limits assumed)
T1 sequence (looked up): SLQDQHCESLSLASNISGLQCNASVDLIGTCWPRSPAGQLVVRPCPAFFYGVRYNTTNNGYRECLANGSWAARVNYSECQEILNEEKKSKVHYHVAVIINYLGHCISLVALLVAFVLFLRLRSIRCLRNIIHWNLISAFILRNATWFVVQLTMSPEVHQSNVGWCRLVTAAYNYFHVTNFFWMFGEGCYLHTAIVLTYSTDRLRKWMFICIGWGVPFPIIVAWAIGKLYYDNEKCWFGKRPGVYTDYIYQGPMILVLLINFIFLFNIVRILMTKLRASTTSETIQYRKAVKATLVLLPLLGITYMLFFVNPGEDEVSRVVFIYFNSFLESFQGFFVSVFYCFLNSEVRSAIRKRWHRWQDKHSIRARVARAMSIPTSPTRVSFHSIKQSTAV


How the values were obtained:
[1] = target: human corticotropin-releasing factor 2a (CRF2a receptor) (human), Q13324; assay: cell-based or functional assay
Chain of human corticotropin-releasing factor 2a (CRF2a receptor) (human), Q13324 (Q13324 20-411): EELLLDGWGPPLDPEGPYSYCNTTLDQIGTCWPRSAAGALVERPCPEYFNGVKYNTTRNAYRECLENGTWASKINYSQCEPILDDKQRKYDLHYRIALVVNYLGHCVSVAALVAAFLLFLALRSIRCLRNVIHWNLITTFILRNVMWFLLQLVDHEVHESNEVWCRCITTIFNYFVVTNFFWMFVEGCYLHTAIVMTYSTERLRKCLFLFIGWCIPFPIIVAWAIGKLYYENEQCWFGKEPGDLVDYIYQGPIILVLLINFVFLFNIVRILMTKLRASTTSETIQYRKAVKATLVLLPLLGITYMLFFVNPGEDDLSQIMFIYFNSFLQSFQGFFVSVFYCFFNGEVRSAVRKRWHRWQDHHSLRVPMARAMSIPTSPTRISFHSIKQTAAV

CRF1R receptor = target: T1, CRF1R receptor; assay: cell-based or functional assay

Binder | EC50 [nM] (cAMP) [1] | Emax (% I) (CRF1R receptor)
Ac-IVLSLD[dV]PIKLK([γGlu-C16 diacid])KILLEQEKQKKQREQAETN[Dap]QILAQV-NH2 (SMILES CC[C@H](C)[C@H](NC(C)=O)C(=O)N[C@H](C(=O)N[C@@H](CC(C)C)C(=O)N[C@@H](CO)C(=O)N[C@@H](CC(C)C)C(=O)N[C@@H](CC(=O)O)C(=O)N[C@@H](C(=O)N1CCC[C@H]1C(=O)N[C@H](C(=O)N[C@@H](CCCCN)C(=O)N[C@@H](CC(C)C)C(=O)N[C@@H](CCCCNC(=O)CC[C@H](NC(=O)CCCCCCCCCCCCCCC(=O)O)C(=O)O)C(=O)N[C@@H](CCCCN)C(=O)N[C@H](C(=O)N[C@@H](CC(C)C)C(=O)N[C@@H](CC(C)C)C(=O)N[C@@H](CCC(=O)O)C(=O)N[C@@H](CCC(N)=O)C(=O)N[C@@H](CCC(=O)O)C(=O)N[C@@H](CCCCN)C(=O)N[C@@H](CCC(N)=O)C(=O)N[C@@H](CCCCN)C(=O)N[C@@H](CCCCN)C(=O)N[C@@H](CCC(N)=O)C(=O)N[C@@H](CCCNC(=N)N)C(=O)N[C@@H](CCC(=O)O)C(=O)N[C@@H](CCC(N)=O)C(=O)N[C@@H](C)C(=O)N[C@@H](CCC(=O)O)C(=O)N[C@H](C(=O)N[C@@H](CC(N)=O)C(=O)N[C@@H](CN)C(=O)N[C@@H](CCC(N)=O)C(=O)N[C@H](C(=O)N[C@@H](CC(C)C)C(=O)N[C@@H](C)C(=O)N[C@@H](CCC(N)=O)C(=O)N[C@H](C(N)=O)C(C)C)[C@@H](C)CC)[C@@H](C)O)[C@@H](C)CC)[C@@H](C)CC)C(C)C)C(C)C) [SEQ ID NO 55] | 0.42 nM | 5%
Ac-IVLSLD[dV]PIKLK([γGlu-C16 diacid])KILLEQEKQKKQREQAETN[Nva]QILAQV-NH2 (SMILES CCC[C@H](NC(=O)[C@H](CC(N)=O)NC(=O)[C@@H](NC(=O)[C@H](CCC(=O)O)NC(=O)[C@H](C)NC(=O)[C@H](CCC(N)=O)NC(=O)[C@H](CCC(=O)O)NC(=O)[C@H](CCCNC(=N)N)NC(=O)[C@H](CCC(N)=O)NC(=O)[C@H](CCCCN)NC(=O)[C@H](CCCCN)NC(=O)[C@H](CCC(N)=O)NC(=O)[C@H](CCCCN)NC(=O)[C@H](CCC(=O)O)NC(=O)[C@H](CCC(N)=O)NC(=O)[C@H](CCC(=O)O)NC(=O)[C@H](CC(C)C)NC(=O)[C@H](CC(C)C)NC(=O)[C@@H](NC(=O)[C@H](CCCCN)NC(=O)[C@H](CCCCNC(=O)CC[C@H](NC(=O)CCCCCCCCCCCCCCC(=O)O)C(=O)O)NC(=O)[C@H](CC(C)C)NC(=O)[C@H](CCCCN)NC(=O)[C@@H](NC(=O)[C@@H]1CCCN1C(=O)[C@H](NC(=O)[C@H](CC(=O)O)NC(=O)[C@H](CC(C)C)NC(=O)[C@H](CO)NC(=O)[C@H](CC(C)C)NC(=O)[C@@H](NC(=O)[C@@H](NC(C)=O)[C@@H](C)CC)C(C)C)C(C)C)[C@@H](C)CC)[C@@H](C)CC)[C@@H](C)O)C(=O)N[C@@H](CCC(N)=O)C(=O)N[C@H](C(=O)N[C@@H](CC(C)C)C(=O)N[C@@H](C)C(=O)N[C@@H](CCC(N)=O)C(=O)N[C@H](C(N)=O)C(C)C)[C@@H](C)CC) [SEQ ID NO 52] | 0.17 nM | 7%
Ac-IVLSLD[dV]PIKLK([AEEA-AEEA-γGlu-C18 diacid])KILLEQEKQKKQREQAETNEQILAQV-NH2 (SMILES CC[C@H](C)[C@H](NC(C)=O)C(=O)N[C@H](C(=O)N[C@@H](CC(C)C)C(=O)N[C@@H](CO)C(=O)N[C@@H](CC(C)C)C(=O)N[C@@H](CC(=O)O)C(=O)N[C@@H](C(=O)N1CCC[C@H]1C(=O)N[C@H](C(=O)N[C@@H](CCCCN)C(=O)N[C@@H](CC(C)C)C(=O)N[C@@H](CCCCNC(=O)COCCOCCNC(=O)COCCOCCNC(=O)CC[C@H](NC(=O)CCCCCCCCCCCCCCCCC(=O)O)C(=O)O)C(=O)N[C@@H](CCCCN)C(=O)N[C@H](C(=O)N[C@@H](CC(C)C)C(=O)N[C@@H](CC(C)C)C(=O)N[C@@H](CCC(=O)O)C(=O)N[C@@H](CCC(N)=O)C(=O)N[C@@H](CCC(=O)O)C(=O)N[C@@H](CCCCN)C(=O)N[C@@H](CCC(N)=O)C(=O)N[C@@H](CCCCN)C(=O)N[C@@H](CCCCN)C(=O)N[C@@H](CCC(N)=O)C(=O)N[C@@H](CCCNC(=N)N)C(=O)N[C@@H](CCC(=O)O)C(=O)N[C@@H](CCC(N)=O)C(=O)N[C@@H](C)C(=O)N[C@@H](CCC(=O)O)C(=O)N[C@H](C(=O)N[C@@H](CC(N)=O)C(=O)N[C@@H](CCC(=O)O)C(=O)N[C@@H](CCC(N)=O)C(=O)N[C@H](C(=O)N[C@@H](CC(C)C)C(=O)N[C@@H](C)C(=O)N[C@@H](CCC(N)=O)C(=O)N[C@H](C(N)=O)C(C)C)[C@@H](C)CC)[C@@H](C)O)[C@@H](C)CC)[C@@H](C)CC)C(C)C)C(C)C) [SEQ ID NO 108] | 1.14 nM | 4%
Ac-IVLSLD[dV]PIKLK([γGlu-C16 diacid])QILLKQERQKKQREQAEKNEQILEQV-NH2 (SMILES CC[C@H](C)[C@H](NC(C)=O)C(=O)N[C@H](C(=O)N[C@@H](CC(C)C)C(=O)N[C@@H](CO)C(=O)N[C@@H](CC(C)C)C(=O)N[C@@H](CC(=O)O)C(=O)N[C@@H](C(=O)N1CCC[C@H]1C(=O)N[C@H](C(=O)N[C@@H](CCCCN)C(=O)N[C@@H](CC(C)C)C(=O)N[C@@H](CCCCNC(=O)CC[C@H](NC(=O)CCCCCCCCCCCCCCC(=O)O)C(=O)O)C(=O)N[C@@H](CCC(N)=O)C(=O)N[C@H](C(=O)N[C@@H](CC(C)C)C(=O)N[C@@H](CC(C)C)C(=O)N[C@@H](CCCCN)C(=O)N[C@@H](CCC(N)=O)C(=O)N[C@@H](CCC(=O)O)C(=O)N[C@@H](CCCNC(=N)N)C(=O)N[C@@H](CCC(N)=O)C(=O)N[C@@H](CCCCN)C(=O)N[C@@H](CCCCN)C(=O)N[C@@H](CCC(N)=O)C(=O)N[C@@H](CCCNC(=N)N)C(=O)N[C@@H](CCC(=O)O)C(=O)N[C@@H](CCC(N)=O)C(=O)N[C@@H](C)C(=O)N[C@@H](CCC(=O)O)C(=O)N[C@@H](CCCCN)C(=O)N[C@@H](CC(N)=O)C(=O)N[C@@H](CCC(=O)O)C(=O)N[C@@H](CCC(N)=O)C(=O)N[C@H](C(=O)N[C@@H](CC(C)C)C(=O)N[C@@H](CCC(=O)O)C(=O)N[C@@H](CCC(N)=O)C(=O)N[C@H](C(N)=O)C(C)C)[C@@H](C)CC)[C@@H](C)CC)[C@@H](C)CC)C(C)C)C(C)C) [SEQ ID NO 17] | 0.21 nM | 12%

Results, then the binder that gave them:

EC50 [nM] (cAMP) [1] | Emax (% I) (CRF1R receptor) | Binder
0.34 nM | 5% | Ac-IVLSLD[dV]PIKLK([γGlu-C16 diacid])KILLKQERQKKQREQAEKN[Aib]QILEQV-NH2 (SMILES CC[C@H](C)[C@H](NC(C)=O)C(=O)N[C@H](C(=O)N[C@@H](CC(C)C)C(=O)N[C@@H](CO)C(=O)N[C@@H](CC(C)C)C(=O)N[C@@H](CC(=O)O)C(=O)N[C@@H](C(=O)N1CCC[C@H]1C(=O)N[C@H](C(=O)N[C@@H](CCCCN)C(=O)N[C@@H](CC(C)C)C(=O)N[C@@H](CCCCNC(=O)CC[C@H](NC(=O)CCCCCCCCCCCCCCC(=O)O)C(=O)O)C(=O)N[C@@H](CCCCN)C(=O)N[C@H](C(=O)N[C@@H](CC(C)C)C(=O)N[C@@H](CC(C)C)C(=O)N[C@@H](CCCCN)C(=O)N[C@@H](CCC(N)=O)C(=O)N[C@@H](CCC(=O)O)C(=O)N[C@@H](CCCNC(=N)N)C(=O)N[C@@H](CCC(N)=O)C(=O)N[C@@H](CCCCN)C(=O)N[C@@H](CCCCN)C(=O)N[C@@H](CCC(N)=O)C(=O)N[C@@H](CCCNC(=N)N)C(=O)N[C@@H](CCC(=O)O)C(=O)N[C@@H](CCC(N)=O)C(=O)N[C@@H](C)C(=O)N[C@@H](CCC(=O)O)C(=O)N[C@@H](CCCCN)C(=O)N[C@@H](CC(N)=O)C(=O)NC(C)(C)C(=O)N[C@@H](CCC(N)=O)C(=O)N[C@H](C(=O)N[C@@H](CC(C)C)C(=O)N[C@@H](CCC(=O)O)C(=O)N[C@@H](CCC(N)=O)C(=O)N[C@H](C(N)=O)C(C)C)[C@@H](C)CC)[C@@H](C)CC)[C@@H](C)CC)C(C)C)C(C)C) [SEQ ID NO 21]
0.12 nM | 9% | Ac-IVLSLD[dV]PIKLK([γGlu-C16 diacid])KILLEQEKQKKQREQAETN[Abu]QILAQV-NH2 (SMILES CC[C@H](NC(=O)[C@H](CC(N)=O)NC(=O)[C@@H](NC(=O)[C@H](CCC(=O)O)NC(=O)[C@H](C)NC(=O)[C@H](CCC(N)=O)NC(=O)[C@H](CCC(=O)O)NC(=O)[C@H](CCCNC(=N)N)NC(=O)[C@H](CCC(N)=O)NC(=O)[C@H](CCCCN)NC(=O)[C@H](CCCCN)NC(=O)[C@H](CCC(N)=O)NC(=O)[C@H](CCCCN)NC(=O)[C@H](CCC(=O)O)NC(=O)[C@H](CCC(N)=O)NC(=O)[C@H](CCC(=O)O)NC(=O)[C@H](CC(C)C)NC(=O)[C@H](CC(C)C)NC(=O)[C@@H](NC(=O)[C@H](CCCCN)NC(=O)[C@H](CCCCNC(=O)CC[C@H](NC(=O)CCCCCCCCCCCCCCC(=O)O)C(=O)O)NC(=O)[C@H](CC(C)C)NC(=O)[C@H](CCCCN)NC(=O)[C@@H](NC(=O)[C@@H]1CCCN1C(=O)[C@H](NC(=O)[C@H](CC(=O)O)NC(=O)[C@H](CC(C)C)NC(=O)[C@H](CO)NC(=O)[C@H](CC(C)C)NC(=O)[C@@H](NC(=O)[C@@H](NC(C)=O)[C@@H](C)CC)C(C)C)C(C)C)[C@@H](C)CC)[C@@H](C)CC)[C@@H](C)O)C(=O)N[C@@H](CCC(N)=O)C(=O)N[C@H](C(=O)N[C@@H](CC(C)C)C(=O)N[C@@H](C)C(=O)N[C@@H](CCC(N)=O)C(=O)N[C@H](C(N)=O)C(C)C)[C@@H](C)CC) [SEQ ID NO 51]
